Source: article PMC4449551, “The dominant negative ARM domain uncovers multiple functions of PUB13 in Arabidopsis immunity, flowering, and senescence” (Journal of Experimental Botany, 2015)

Target: T1, GST–PUB13 (Arabidopsis, UniProt Q9SNC6 1-660)
T1 construct: PUB13, plant U-box E3 ubiquitin ligase of Arabidopsis, full length (UND, U-box and ARM repeat domain); also called full-length PUB13; source: E. coli BL21, purified (glutathione agarose)
T1 sequence (looked up): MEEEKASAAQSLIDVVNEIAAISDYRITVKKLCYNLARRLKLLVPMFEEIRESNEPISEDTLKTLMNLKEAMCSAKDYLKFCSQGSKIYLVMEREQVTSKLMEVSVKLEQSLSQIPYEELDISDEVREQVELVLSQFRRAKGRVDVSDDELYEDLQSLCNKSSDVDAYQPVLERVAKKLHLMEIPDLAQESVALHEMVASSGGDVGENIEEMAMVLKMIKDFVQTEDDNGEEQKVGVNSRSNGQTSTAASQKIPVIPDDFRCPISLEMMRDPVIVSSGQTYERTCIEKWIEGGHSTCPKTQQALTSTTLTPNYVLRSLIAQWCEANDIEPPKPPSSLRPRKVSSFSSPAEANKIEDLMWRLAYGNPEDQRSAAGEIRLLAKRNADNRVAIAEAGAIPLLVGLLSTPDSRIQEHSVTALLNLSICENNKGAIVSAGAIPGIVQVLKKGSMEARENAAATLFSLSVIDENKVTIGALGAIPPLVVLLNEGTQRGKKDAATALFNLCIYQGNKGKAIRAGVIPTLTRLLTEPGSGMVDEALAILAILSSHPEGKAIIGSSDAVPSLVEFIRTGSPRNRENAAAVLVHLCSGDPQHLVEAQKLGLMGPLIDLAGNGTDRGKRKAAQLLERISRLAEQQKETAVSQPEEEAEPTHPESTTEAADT
Test: pull-down; About 10 μg of MBP or MBP fusion on amylose beads as bait, 10 μg of GST-tagged protein in 1 ml pull-down buffer (20mM TRIS-HCl pH 7.5, 1mM β-mercaptoethanol, 3mM EDTA, 150mM NaCl, 1% NP-40), 1h at 4 °C; western blot with α-GST (Fig. 1B, 1F)
Conditions: both partners purified

B1: MBP–BAK1CD (domain or fragment, Arabidopsis, UniProt Q94F62 247-615, looked up)
chain: AWWRRKKPQDHFFDVPAEEDPEVHLGQLKRFSLRELQVASDNFSNKNILGRGGFGKVYKGRLADGTLVAVKRLKEERTQGGELQFQTEVEMISMAVHRNLLRLRGFCMTPTERLLVYPYMANGSVASCLRERPESQPPLDWPKRQRIALGSARGLAYLHDHCDPKIIHRDVKAANILLDEEFEAVVGDFGLAKLMDYKDTHVTTAVRGTIGHIAPEYLSTGKSSEKTDVFGYGVMLLELITGQRAFDLARLANDDDVMLLDWVKGLLKEKKLEALVDVDLQGNYKDEEVEQLIQVALLCTQSSPMERPKMSEVVRMLEGDGLAERWEEWQKEEMFRQDFNYPTHHPAVSGWIIGDSTSQIENEYPSGPR
notes: BAK1 (BRI1-associated kinase), receptor-like kinase of Arabidopsis, cytoplasmic domain; also called cytoplasmic domain of BAK1; BAK1 cytosolic domain; source: E. coli BL21, purified (amylose)
Question: Does B1 bind?
Answer: Result: binds
